Data on one molecule can be found in US20240002516A1 (4B TECHNOLOGIES SUZHOU, published 2024).

Assay [1] concerns the target T1, human TrkA on CellSensor TrkA-NFAT-bla CHO-K1 cells (human, UniProt P04629 33-796). The assay is described as follows: cell-based or functional assay.
The target in assay [2] is T2, extracellular domain (ECD) of human TrkA protein, N-terminal flag tag and C-terminal His tag (PHA) (human, UniProt P04629 33-423).
T2 construct: Made in 293-F cells and purified by IMAC; also called TrkA ECD protein; TrkA (ECD); not shown: flag tag at the N-terminus (after the signal peptide); His tag at the C-terminus
T2 sequence (P04629 33-423): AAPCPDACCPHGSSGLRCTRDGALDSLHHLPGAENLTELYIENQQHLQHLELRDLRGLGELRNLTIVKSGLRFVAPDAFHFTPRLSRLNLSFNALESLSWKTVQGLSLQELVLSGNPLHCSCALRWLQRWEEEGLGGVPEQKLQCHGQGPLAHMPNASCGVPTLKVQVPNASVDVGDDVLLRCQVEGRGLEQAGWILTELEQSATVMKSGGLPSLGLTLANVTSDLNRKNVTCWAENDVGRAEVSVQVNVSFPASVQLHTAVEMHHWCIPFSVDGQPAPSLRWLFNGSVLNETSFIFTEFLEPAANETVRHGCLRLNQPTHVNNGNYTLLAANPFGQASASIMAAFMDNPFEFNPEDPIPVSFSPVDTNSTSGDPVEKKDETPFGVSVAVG
The assay can be described thus: BLI (Octet Red384), as in Example 4. The protocol: (§1) The bio-layer interferometry (BLI) method was used to determine the affinities of the antibodies, employing Octet Red384. Briefly, anti-human Fc-coated biosensor AHQ tips (ForteBio) were put into PBS with 0.1% w/v bovine serum albumin and 0.05% Tween-20 for a minimum of 10 min in the pre-wetting plate. The purified antibodies (100 nM in PBS with 0.1% bovine serum albumin and 0.05% Tween-20 (assay buffer)) were captured on AHQ biosensors (ForteBio) at a level of about 1 nm. The loaded biosensors were washed with an assay buffer to remove any unbound protein. Then, the association rates, dissociation rates and response were measured, using an antigen of 100 nM (in PBS with 0.1% bovine serum albumin and 0.05% Tween-20).
Two rounds of humanizations were further performed. […] In the second round, many other variants were further constructed (including several mutations in the CDR sequences). Quickchange based site-directed mutagenesis or overlap PCR were performed to create expression plasmid of new versions of 2nd round humanized antibodies. All recombinant antibodies were expressed and purified as described in Example 1, then measured antigen binding affinity using BLI technology with the Octet Red384 instrument as mentioned above. To compare the functional activity of humanized antibodies with chimeric antibodies, NFAT assay was also performed.
In general terms: BLI is a label-free optical method that tracks binding on a fibre tip over time.

Assay [3] concerns the target T1, human TrkA on CellSensor TrkA-NFAT-bla …. The assay is described as follows: FACS on cells expressing human TrkA (FIG. 5A).
Assay [4] deals with T2, extracellular domain (ECD) of human …. The assay is described as follows: affinity after affinity maturation; method not stated in Example 5.
For assay [5] the target is unchanged. The assay is described as follows: BLI (Octet Red384), antibody captured on anti-human Fc AHQ tips, antigen 100 nM. The protocol:
as §1

Assay [6] shares this target. The assay is described as follows: affinity after affinity maturation; method not stated in Example 5; measured in the affinity maturation series of Example 5, not the humanization series of the 11th table.

T1 sequence (P04629 33-796 limits assumed, form in doubt): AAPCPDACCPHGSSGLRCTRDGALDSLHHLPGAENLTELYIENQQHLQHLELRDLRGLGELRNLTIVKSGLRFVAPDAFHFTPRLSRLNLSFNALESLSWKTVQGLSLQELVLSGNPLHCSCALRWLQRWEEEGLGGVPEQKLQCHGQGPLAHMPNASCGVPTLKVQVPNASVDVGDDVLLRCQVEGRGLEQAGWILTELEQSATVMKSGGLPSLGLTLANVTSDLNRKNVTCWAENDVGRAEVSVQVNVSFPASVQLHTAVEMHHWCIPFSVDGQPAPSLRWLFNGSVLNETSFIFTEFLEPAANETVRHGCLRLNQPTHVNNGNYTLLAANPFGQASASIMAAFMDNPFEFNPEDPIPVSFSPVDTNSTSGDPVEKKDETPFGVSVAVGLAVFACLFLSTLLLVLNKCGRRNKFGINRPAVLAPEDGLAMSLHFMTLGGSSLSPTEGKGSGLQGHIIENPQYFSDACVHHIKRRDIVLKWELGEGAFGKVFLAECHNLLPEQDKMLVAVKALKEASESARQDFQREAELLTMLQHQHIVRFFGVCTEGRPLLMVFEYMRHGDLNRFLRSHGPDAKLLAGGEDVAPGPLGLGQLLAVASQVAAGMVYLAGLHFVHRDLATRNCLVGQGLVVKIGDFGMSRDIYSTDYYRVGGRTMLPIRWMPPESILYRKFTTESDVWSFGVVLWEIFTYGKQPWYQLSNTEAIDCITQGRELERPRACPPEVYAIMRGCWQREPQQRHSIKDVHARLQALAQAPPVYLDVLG

B1: chi-PHD49 (antibody, V domains shown)
VH: QVQLQQSGAELARPGASVKLSCKASGYTFSSYWMQWVKQRPGQGLEWIGAIYPGDDDTIYTQKFKGKATLTADKSSSTAYMQLSSLASEDSAVYYCARNYDYQAWFAYWGQGTLVTVSA
VL: QIVLTQSPALMSASPGEKVTMTCSASSSVSYMYWYQQKPRSSPKPWIYLTSNLASGVPARFSGSGSGTSYSLTISSMEAEDAATYYCQQWSSNPLTFGAGTKLELK
notes: Chimeric: human IgG4 / human kappa constant regions (pCDNA3.4-hIgG4 and pCDNA3.4-hKappa vectors)
Regarding B1, in assay [1], the “EC50 (so labelled in the drawn table; a falling inhibition curve, the text calls this value IC50); inhibition of NGF-induced TrkA activation in TrkA-NFAT-bla CHO-K1 reporter cells” value turned out to be 0.793 nM and the “Top; inhibition of NGF-induced TrkA activation in TrkA-NFAT-bla CHO-K1 reporter cells” value is 1.04 Response Ratio. In assay [2], this molecule came in with a Kd of 3.62 nM, a koff of 0.000827 s⁻¹ and a kon of 229000 M⁻¹ s⁻¹. In assay [3], the response was half-maximal at 0.157 µg/mL (EC50). In assay [4], this molecule showed a koff of 0.000665 s⁻¹ and a kon of 219000 M⁻¹ s⁻¹. In assay [5], this molecule returned a dissociation constant (Kd) of 1.79 nM, a dissociation rate constant (koff) of 0.000603 s⁻¹ and a kon of 337000 M⁻¹ s⁻¹. In assay [6], this molecule showed a dissociation constant Kd of 3.04 nM.

Broadly, the Kd is the equilibrium constant for the complex coming apart. The low end stands for a tighter complex, the high end for a looser complex. The term koff denotes the first-order rate constant of dissociation. Low values mean a long-lived complex, high ones a short-lived complex. For orientation: kon means the second-order rate constant of association. High values mean fast association, low ones slow association. By EC50 is commonly meant the concentration giving half of the maximal effect. Read a high EC50 as a need for much substance.
